These results are taken from PMC5148919, “Enhanced production of 2,3-butanediol by engineered Saccharomyces cerevisiae through fine-tuning of pyruvate decarboxylase and NADH oxidase activities” (Biotechnology for Biofuels, 2016).

In one series the test system is T1, CtPdc1.
T1 construct: gene PDC1; full-length ORF from genomic DNA, TDH3 promoter multi-copy plasmid in Pdc-deficient S. cerevisiae SOS5; no tag mentioned; ORF ends NAAQE by primer
Description: coupled ADH/NADH assay at […] nm, crude extract, Lineweaver-Burk. Particulars: pH 6.5 imidazole, 30 °C, 5 mM MgCl2, 0.2 mM TPP, 0.4 mM NADH; pyruvate 1.56-100 mM. Format: cell-based, Candida viswanathii (printed as Candida tropicalis).

Substrate in series [1]: CC(=O)C(=O)O
Description: cells, lysate or membranes. Format: cell-based, Kluyveromyces marxianus. The conditions noted are these: pH 6.5 imidazole, 30 °C, 5 mM MgCl2, 0.2 mM TPP, 0.4 mM NADH, pyruvate 1.56-100 mM.

Substrate in series [2]: CC(=O)C(=O)O
Description: cells, lysate or membranes. Format: cell-based, Saccharomyces cerevisiae. The conditions noted are these: pH 6.5 imidazole, 30 °C, 5 mM MgCl2, 0.2 mM TPP, 0.4 mM NADH, pyruvate 1.56-100 mM.

The Km is the concentration of substrate that gives half-maximal velocity. In the case of `CC(=O)C(=O)O` [pyruvate], the Michaelis-Menten constant (Km) in the series with CtPdc1 came out at 2.7 mM.

B1: K. marxianus Pdc1 (Kluyveromyces marxianus) (protein)
chain: MSEITLGRYLFERLKQVEVQTIFGLPGDFNLSLLDKIYEVPGMRWAGNANELNAAYAADGYARLKGMACVITTFGVGELSALNGIAGSYAEHVGVLHVVGVPSISSQAKQLLLHHTLGNGDFTVFHRMSSNISETTAMITDINSAPSEIDRCIRTTYISQRPVYLGLPANLVDLKVPASLLETPIDLSLKPNDPEAENEVLETVLELIKDAKNPVILADACCSRHNVKAETKKLIDITQFPAFVTPMGKGSIDEQHPRFGGVYVGTLSSPEVKEAVESADLVLSVGALLSDFNTGSFSYSYKTKNIVEFHSDYIKVRNATFPGVQMKFVLQKLLTKVKDAAKGYKPVPVPHAPRDNKPVADSTPLKQEWVWTQVGKFLQEGDVVLTETGTSAFGINQTHFPNDTYGISQVLWGSIGFTGGATLGAAFAAEEIDPKKRVILFIGDGSLQLTVQEISTMIRWGLKPYLFVLNNDGYTIERLIHGETAQYNCIQSWKHLDLLPTFGAKDYEAVRVATTGEWNKLTTDKKFQENSKIRLIEVMLPVMDAPSNLVKQAQLTASINAKQE
notes: full-length ORF from genomic DNA, TDH3 promoter multi-copy plasmid in Pdc-deficient S. cerevisiae SOS5; no tag mentioned; ORF ends NAKQE by primer
Turning to B1, in series [1], the Michaelis-Menten constant (Km) is given as 7.7 mM.

B2: Pdc5 (Saccharomyces cerevisiae S288C) (protein)
chain: MSEITLGKYLFERLSQVNCNTVFGLPGDFNLSLLDKLYEVKGMRWAGNANELNAAYAADGYARIKGMSCIITTFGVGELSALNGIAGSYAEHVGVLHVVGVPSISSQAKQLLLHHTLGNGDFTVFHRMSANISETTAMITDIANAPAEIDRCIRTTYTTQRPVYLGLPANLVDLNVPAKLLETPIDLSLKPNDAEAEAEVVRTVVELIKDAKNPVILADACASRHDVKAETKKLMDLTQFPVYVTPMGKGAIDEQHPRYGGVYVGTLSRPEVKKAVESADLILSIGALLSDFNTGSFSYSYKTKNIVEFHSDHIKIRNATFPGVQMKFALQKLLDAIPEVVKDYKPVAVPARVPITKSTPANTPMKQEWMWNHLGNFLREGDIVIAETGTSAFGINQTTFPTDVYAIVQVLWGSIGFTVGALLGATMAAEELDPKKRVILFIGDGSLQLTVQEISTMIRWGLKPYIFVLNNNGYTIEKLIHGPHAEYNEIQGWDHLALLPTFGARNYETHRVATTGEWEKLTQDKDFQDNSKIRMIEVMLPVFDAPQNLVKQAQLTAATNAKQ
notes: full-length ORF from genomic DNA, TDH3 promoter multi-copy plasmid in Pdc-deficient S. cerevisiae SOS5; no tag mentioned
For the molecule B2, in series [2], the Km is recorded as 9.9 mM.

B3: Pdc6 (Saccharomyces cerevisiae S288C) (protein)
chain: SEITLGKYLFERLKQVNVNTIFGLPGDFNLSLLDKIYEVDGLRWAGNANELNAAYAADGYARIKGLSVLVTTFGVGELSALNGIAGSYAEHVGVLHVVGVPSISAQAKQLLLHHTLGNGDFTVFHRMSANISETTSMITDIATAPSEIDRLIRTTFITQRPSYLGLPANLVDLKVPGSLLEKPIDLSLKPNDPEAEKEVIDTVLELIQNSKNPVILSDACASRHNVKKETQKLIDLTQFPAFVTPLGKGSIDEQHPRYGGVYVGTLSKQDVKQAVESADLILSVGALLSDFNTGSFSYSYKTKNVVEFHSDYVKVKNATFLGVQMKFALQNLLKVIPDVVKGYKSVPVPTKTPANKGVPASTPLKQEWLWNELSKFLQEGDVIISETGTSAFGINQTIFPKDAYGISQVLWGSIGFTTGATLGAAFAAEEIDPNKRVILFIGDGSLQLTVQEISTMIRWGLKPYLFVLNNDGYTIEKLIHGPHAEYNEIQTWDHLALLPAFGAKKYENHKIATTGEWDALTTDSEFQKNSVIRLIELKLPVFDAPESLIKQAQLTAATNAKQ
notes: as for B2
As for B3, in series [2], the Km is 8.2 mM.

B4: ScPdc1 (Saccharomyces cerevisiae S288C) (protein)
chain: SEITLGKYLFERLKQVNVNTVFGLPGDFNLSLLDKIYEVEGMRWAGNANELNAAYAADGYARIKGMSCIITTFGVGELSALNGIAGSYAEHVGVLHVVGVPSISAQAKQLLLHHTLGNGDFTVFHRMSANISETTAMITDIATAPAEIDRCIRTTYVTQRPVYLGLPANLVDLNVPAKLLQTPIDMSLKPNDAESEKEVIDTILALVKDAKNPVILADACCSRHDVKAETKKLIDLTQFPAFVTPMGKGSIDEQHPRYGGVYVGTLSKPEVKEAVESADLILSVGALLSDFNTGSFSYSYKTKNIVEFHSDHMKIRNATFPGVQMKFVLQKLLTTIADAAKGYKPVAVPARTPANAAVPASTPLKQEWMWNQLGNFLQEGDVVIAETGTSAFGINQTTFPNNTYGISQVLWGSIGFTTGATLGAAFAAEEIDPKKRVILFIGDGSLQLTVQEISTMIRWGLKPYLFVLNNDGYTIEKLIHGPKAQYNEIQGWDHLSLLPTFGAKDYETHRVATTGEWDKLTQDKSFNDNSKIRMIEIMLPVFDAPQNLVEQAKLTAATNAKQ
notes: as for B2
As for B4, the Km in series [2] came to 4.7 mM.
